The source of these data is publication PMC2119236.

For test [1], the target named is H-2Db class I H chain, beta2m-free, in R1E-Db cells (mouse). Description: cross-linking.
Test [2] addresses H-2Kb class I H chain, beta2m-free, in R1E-Kb cells (mouse). Description: cross-linking.

H-2Db class I H chain, beta2m-free, in R1E-Db cells (mouse), sequence (P01899 25-362): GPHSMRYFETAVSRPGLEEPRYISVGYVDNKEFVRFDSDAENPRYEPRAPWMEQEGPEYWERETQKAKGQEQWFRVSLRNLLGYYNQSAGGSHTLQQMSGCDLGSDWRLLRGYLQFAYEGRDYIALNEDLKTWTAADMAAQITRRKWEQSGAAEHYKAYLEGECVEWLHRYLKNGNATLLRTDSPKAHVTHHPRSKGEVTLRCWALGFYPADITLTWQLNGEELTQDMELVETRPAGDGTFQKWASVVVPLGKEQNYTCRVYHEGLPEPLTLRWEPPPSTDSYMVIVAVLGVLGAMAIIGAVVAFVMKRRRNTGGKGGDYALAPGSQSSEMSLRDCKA
H-2Kb class I H chain, beta2m-free, in R1E-Kb cells (mouse), sequence (P01901 22-369): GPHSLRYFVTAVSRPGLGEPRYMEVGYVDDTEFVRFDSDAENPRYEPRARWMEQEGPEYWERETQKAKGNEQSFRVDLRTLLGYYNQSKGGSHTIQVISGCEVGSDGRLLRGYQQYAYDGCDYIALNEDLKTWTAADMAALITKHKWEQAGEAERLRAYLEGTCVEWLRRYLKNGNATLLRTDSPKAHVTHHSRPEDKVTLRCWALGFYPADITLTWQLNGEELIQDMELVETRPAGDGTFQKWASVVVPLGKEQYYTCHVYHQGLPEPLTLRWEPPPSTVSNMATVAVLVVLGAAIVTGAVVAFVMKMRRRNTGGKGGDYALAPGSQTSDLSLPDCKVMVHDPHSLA

B1: p88 (88-kD protein), murine (natural protein)
chain: HDGHDDDAIDIEDDLDDVIEEVEDSKSKSDASTPPSPKVTYKAPVPTGEVYFADSFDRGSLSGWILSKAKKDDTDDEIAKYDGKWEVDEMKETKLPGDKGLVLMSRAKHHAISAKLNKPFLFDTKPLIVQYEVNFQNGIECGGAYVKLLSKTAELSLDQFHDKTPYTIMFGPDKCGEDYKLHFIFRHKNPKTGVYEEKHAKRPDADLKTYFTDKKTHLYTLILNPDNSFEILVDQSVVNSGNLLNDMTPPVNPSREIEDPEDRKPEDWDERPKIADPDAVKPDDWDEDAPSKIPDEEATKPEGWLDDEPEYIPDPDAEKPEDWDEDMDGEWEAPQIANPKCESAPGCGVWQRPMIDNPNYKGKWKPPMIDNPNYQGIWKPRKIPNPDFFEDLEPFKMTPFSAIGLELWSMTSDIFFDNFIISGDRRVVDDWANDGWGLKKAADGAAEPGVVLQMLEAAEERPWLWVVYILTVALPVFLVILFCCSGKKQSNAMEYKKTDAPQPDVKDEEGKEEEKNKRDEEEEEEKLEEKQKSDAEEDGVTGSQDEEDSKPKAEEDEILNRSPRNRKPRRE
Regarding B1, the percent of H chains crosslinked to p88 in test [1] was 25%; in test [2] it was 50%.
